Biological target: trypsin from porcine pancreas (porcine, UniProt P00761 9-231)
Assay: native MS

Chain of trypsin from porcine pancreas (P00761 9-231): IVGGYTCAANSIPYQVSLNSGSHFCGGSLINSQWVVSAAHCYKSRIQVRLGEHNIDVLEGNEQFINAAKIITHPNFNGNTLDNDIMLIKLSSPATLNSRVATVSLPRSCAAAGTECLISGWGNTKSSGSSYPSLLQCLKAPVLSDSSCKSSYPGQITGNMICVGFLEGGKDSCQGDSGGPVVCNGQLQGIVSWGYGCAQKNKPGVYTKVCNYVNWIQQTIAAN

B1: Soybean trypsin inhibitor (natural protein)
chain: DFVLDNEGNPLENGGTYYILSDITAFGGIRAAPTGNERCPLTVVQSRNELDKGIGTIISSPYRIRFIAEGHPLSLKFDSFAVIMLCVGIPTEWSVVEDLPEGPAVKIGENKDAMDGWFRLERVSDDEFNNYKLVFCPQQAEDDKCGDIGISIDHDDGTRRLVVSKNKPLVVQFQKLDKESL
In the case of B1, the “apparent Kd (without RF correction)” value is reported as 27.1 ± 8.4 µM.
